Assay results from publication PMC12232546 (Proceedings of the National Academy of Sciences of the …, 2025).

Target: VASP-EVH1 (human VASP aa1-115, GST cleaved with thrombin) (human, UniProt P50552 1-115)
Assay: ITC

VASP-EVH1 (human VASP aa1-115, GST cleaved with thrombin), sequence (P50552 1-115): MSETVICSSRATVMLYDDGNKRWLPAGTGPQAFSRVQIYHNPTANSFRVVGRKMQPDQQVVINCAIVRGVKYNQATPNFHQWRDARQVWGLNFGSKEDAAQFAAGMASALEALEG

B1: 15-mer WAVE2-derived peptide Ac-SEDNLPPPPAEFSYP-NH2 (peptide)
peptide: Ac-SEDNLPPPPAEFSYP-NH2
Kd: 250 µM
